{"source": "paper PMC3670040", "about": "“Structure of Lipid Kinase p110β/p85β Elucidates an Unusual SH2-Domain-Mediated Inhibitory Mechanism” (Molecular Cell, 2011)", "binders": {"B1": {"name": "mouse p85β-icSH2 (residues 423–722) (domain or fragment, UniProt O08908 423-722, looked up)", "chain": "QQDQVVKEDSIEAVGAQLKVYHQQYQDKSREYDQLYEEYTRTSQELQMKRTAIEAFNETIKIFEEQGQTQEKCSKEYLERFRREGNEKEMQRILLNSERLKSRIAEIHESRTKLEQDLRAQASDNREIDKRMNSLKPDLMQLRKIRDQYLVWLTQKGARQRKINEWLGIKNETEDQYSLMEDEDALPHHEERTWYVGKINRTQAEEMLSGKRDGTFLIRESSQRGCYACSVVVDGDTKHCVIYRTATGFGFAEPYNLYGSLKELVLHYQHASLVQHNDALTVTLAHPVRAPGPGPPSAAR", "notes": "No tag (pFastBac1); also called p85-icSH2; source: Sf9 cells, recombinant baculoviruses, coinfected with p110β; complex purified (HisTrap, Q-Sepharose, heparin, gel filtration)"}}, "target": "T1, Mouse His6-p110β(1-1064) (mouse, UniProt Q8BTI9 1-1064)", "T1 construct": "p110β catalytic subunit of class IA PI3K, mouse, residues 1-1064 (full length); N-terminal extension from pFastBac-HTb printed as [residues removed]; (His6 tag and TEV site); this molecule is used there; also called full-length mouse p110β; p110β catalytic subunit; source: Sf9 cells, recombinant baculoviruses, coinfected with the regulatory subunit; complex purified (HisTrap, Q-Sepharose, …)", "T1 sequence (Q8BTI9 whole entry, the tested form may be a part)": "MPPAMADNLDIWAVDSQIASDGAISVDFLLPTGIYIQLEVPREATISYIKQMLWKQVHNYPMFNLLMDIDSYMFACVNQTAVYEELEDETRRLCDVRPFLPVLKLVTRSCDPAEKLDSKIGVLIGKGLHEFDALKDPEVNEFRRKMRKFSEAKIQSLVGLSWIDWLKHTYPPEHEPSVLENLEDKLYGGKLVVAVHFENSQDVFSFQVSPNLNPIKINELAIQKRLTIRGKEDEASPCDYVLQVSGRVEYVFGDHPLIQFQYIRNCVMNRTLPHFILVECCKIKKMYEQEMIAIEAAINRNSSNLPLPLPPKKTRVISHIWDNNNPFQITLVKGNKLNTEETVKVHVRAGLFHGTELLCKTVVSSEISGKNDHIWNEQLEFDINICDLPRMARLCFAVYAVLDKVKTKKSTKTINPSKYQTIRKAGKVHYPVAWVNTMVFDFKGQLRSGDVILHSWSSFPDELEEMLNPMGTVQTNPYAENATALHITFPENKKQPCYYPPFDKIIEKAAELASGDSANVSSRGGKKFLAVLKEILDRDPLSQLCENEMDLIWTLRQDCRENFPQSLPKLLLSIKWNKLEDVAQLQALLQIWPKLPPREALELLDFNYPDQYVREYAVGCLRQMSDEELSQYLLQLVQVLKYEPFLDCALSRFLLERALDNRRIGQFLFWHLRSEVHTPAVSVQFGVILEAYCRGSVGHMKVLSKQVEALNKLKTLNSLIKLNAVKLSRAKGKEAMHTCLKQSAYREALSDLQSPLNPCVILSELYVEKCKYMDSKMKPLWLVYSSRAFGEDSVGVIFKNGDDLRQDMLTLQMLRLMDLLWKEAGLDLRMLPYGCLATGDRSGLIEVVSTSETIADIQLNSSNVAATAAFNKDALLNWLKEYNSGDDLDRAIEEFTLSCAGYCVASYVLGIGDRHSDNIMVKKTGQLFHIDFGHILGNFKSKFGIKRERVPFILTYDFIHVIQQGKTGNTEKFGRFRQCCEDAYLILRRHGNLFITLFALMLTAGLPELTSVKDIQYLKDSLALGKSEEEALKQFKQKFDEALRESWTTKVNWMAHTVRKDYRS", "test": "crystal structure; mouse His6-p110β(1-1064)/p85β-icSH2(423-722) complex at 4 mg/ml with 20 mM sodium phenyl phosphate and 150 μM GDC0941; 12% PEG 3350, 0.1 M potassium citrate pH 6, 0.4 M lithium sulfate, 22°C; 3.3 Å; one 1:1 complex in the asymmetric unit", "conditions": "both partners purified"}
{"binder": "B1", "values": [{"measurement": "binding result", "value": "binds"}]}
